Results as given in IntAct's records for PubMed 31515488.

B1: Septin-12 (Homo sapiens), Q8IYM1 (parent)
chain: MDPLRRSPSPCLSSQPSSPSTPPCEMLGPVGIEAVLDQLKIKAMKMGFEFNIMVVGQSGLGKSTMVNTLFKSKVWKSNPPGLGVPTPQTLQLHSLTHVIEEKGVKLKLTVTDTPGFGDQINNDNCWDPILGYINEQYEQYLQEEILITRQRHIPDTRVHCCVYFVPPTGHCLRPLDIEFLQRLCRTVNVVPVIARADSLTMEEREAFRRRIQQNLRTHCIDVYPQMCFDEDINDKILNSKLRDRIPFAVVGADQEHLVNGRCVLGRKTKWGIIEVENMAHCEFPLLRDLLIRSHLQDLKDITHNIHYENYRVIRLNESHLLPRGPGWVNLAPASPGQLTTPRTFKVCRGAHDDSDDEF
partner: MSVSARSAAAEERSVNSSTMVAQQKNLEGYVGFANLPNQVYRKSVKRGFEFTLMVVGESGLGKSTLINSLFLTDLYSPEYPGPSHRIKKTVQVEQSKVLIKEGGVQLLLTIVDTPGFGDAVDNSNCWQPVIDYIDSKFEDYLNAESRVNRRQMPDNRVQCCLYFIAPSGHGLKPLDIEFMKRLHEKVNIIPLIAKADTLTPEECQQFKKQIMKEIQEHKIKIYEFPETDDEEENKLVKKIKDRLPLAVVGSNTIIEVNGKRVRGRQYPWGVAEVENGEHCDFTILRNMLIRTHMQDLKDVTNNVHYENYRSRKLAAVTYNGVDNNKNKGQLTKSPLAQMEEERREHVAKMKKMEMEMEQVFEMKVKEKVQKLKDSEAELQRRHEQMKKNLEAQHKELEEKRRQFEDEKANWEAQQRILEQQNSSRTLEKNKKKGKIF
B2: NADPH-dependent diflavin oxidoreductase 1 (Homo sapiens), Q9UHB4 (parent)
chain: MPSPQLLVLFGSQTGTAQDVSERLGREARRRRLGCRVQALDSYPVVNLINEPLVIFVCATTGQGDPPDNMKNFWRFIFRKNLPSTALCQMDFAVLGLGDSSYAKFNFVAKKLHRRLLQLGGSALLPVCLGDDQHELGPDAAVDPWLRDLWDRVLGLYPPPPGLTEIPPGVPLPSKFTLLFLQEAPSTGSEGQRVAHPGSQEPPSESKPFLAPMISNQRVTGPSHFQDVRLIEFDILGSGISFAAGDVVLIQPSNSAAHVQRFCQVLGLDPDQLFMLQPREPDVSSPTRLPQPCSMRHLVSHYLDIASVPRRSFFELLACLSLHELEREKLLEFSSAQGQEELFEYCNRPRRTILEVLCDFPHTAAAIPPDYLLDLIPVIRPRAFSIASSLLTHPSRLQILVAVVQFQTRLKEPRRGLCSSWLASLDPGQGPVRVPLWVRPGSLAFPETPDTPVIMVGPGTGVAPFRAAIQERVAQGQTGNFLFFGCRWRDQDFYWEAEWQELEKRDCLTLIPAFSREQEQKVYVQHRLRELGSLVWELLDRQGAYFYLAGNAKSMPADVSEALMSIFQEEGGLCSPDAAAYLARLQQTRRFQTETWA
partner: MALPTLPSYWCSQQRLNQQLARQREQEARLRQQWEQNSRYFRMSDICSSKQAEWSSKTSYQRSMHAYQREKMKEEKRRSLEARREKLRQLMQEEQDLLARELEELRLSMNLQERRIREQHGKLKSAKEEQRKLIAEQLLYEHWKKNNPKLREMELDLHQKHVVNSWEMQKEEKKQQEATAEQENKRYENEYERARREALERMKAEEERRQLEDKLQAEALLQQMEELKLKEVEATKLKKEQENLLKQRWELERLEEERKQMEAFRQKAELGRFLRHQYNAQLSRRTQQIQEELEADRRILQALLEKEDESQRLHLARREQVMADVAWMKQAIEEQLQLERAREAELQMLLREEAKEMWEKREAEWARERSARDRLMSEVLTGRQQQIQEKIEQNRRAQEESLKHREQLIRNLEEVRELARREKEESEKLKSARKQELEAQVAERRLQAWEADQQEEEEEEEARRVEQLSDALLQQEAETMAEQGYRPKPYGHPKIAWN
B3: Low-density lipoprotein receptor class A domain-containing protein 1 (Homo sapiens), Q5T700 (parent)
chain: MNKVFPQGENGYTAAESKAHPGGEAGGGHLCCSRRGACLSASLLLLLATVAALIALVTILGLPSCTPGAQACITLTNRTGFLCHDQRSCIPASGVCDGVRTCTHGEDEDESLCRDVPQSLPHFLVAHCGDPASWIYSDQKCDGTNNCGDCSDELSPVTVCPPCGPGWWRCPSTFFKYCDCIPRHLCRDHVQHCSDWSDEYACPGP
partner: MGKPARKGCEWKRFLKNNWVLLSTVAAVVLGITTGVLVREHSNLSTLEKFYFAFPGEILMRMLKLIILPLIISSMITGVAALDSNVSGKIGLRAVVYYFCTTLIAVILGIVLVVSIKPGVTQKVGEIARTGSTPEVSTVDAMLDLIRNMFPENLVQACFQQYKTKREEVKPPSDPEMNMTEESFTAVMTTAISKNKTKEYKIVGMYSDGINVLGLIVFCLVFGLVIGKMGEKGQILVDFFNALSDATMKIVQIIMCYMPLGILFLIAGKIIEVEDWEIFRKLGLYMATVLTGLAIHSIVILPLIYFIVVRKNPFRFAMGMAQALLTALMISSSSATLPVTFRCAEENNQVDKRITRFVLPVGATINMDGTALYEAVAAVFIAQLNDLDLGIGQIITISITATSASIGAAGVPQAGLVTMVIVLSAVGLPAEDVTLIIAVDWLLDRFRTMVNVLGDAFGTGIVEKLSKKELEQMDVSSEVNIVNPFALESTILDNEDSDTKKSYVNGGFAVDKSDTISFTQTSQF
B4: Tuftelin-interacting protein 11 (Homo sapiens), Q9UBB9 (parent)
chain: MSLSHLYRDGEGRIDDDDDERENFEITDWDLQNEFNPNRQRHWQTKEEATYGVWAERDSDDERPSFGGKRARDYSAPVNFISAGLKKGAAEEAELEDSDDEEKPVKQDDFPKDFGPRKLKTGGNFKPSQKGFAGGTKSFMDFGSWERHTKGIGQKLLQKMGYVPGRGLGKNAQGIINPIEAKQRKGKGAVGAYGSERTTQSMQDFPVVDSEEEAEEEFQKELSQWRKDPSGSKKKPKYSYKTVEELKAKGRISKKLTAPQKELSQVKVIDMTGREQKVYYSYSQISHKHNVPDDGLPLQSQQLPQSGKEAKAPGFALPELEHNLQLLIDLTEQEIIQNDRQLQYERDMVVNLFHELEKMTEVLDHEERVISNLSKVLEMVEECERRMQPDCSNPLTLDECARIFETLQDKYYEEYRMSDRVDLAVAIVYPLMKEYFKEWDPLKDCTYGTEIISKWKSLLENDQLLSHGGQDLSADAFHRLIWEVWMPFVRNIVTQWQPRNCDPMVDFLDSWVHIIPVWILDNILDQLIFPKLQKEVENWNPLTDTVPIHSWIHPWLPLMQARLEPLYSPIRSKLSSALQKWHPSDSSAKLILQPWKDVFTPGSWEAFMVKNIVPKLGMCLGELVINPHQQHMDAFYWVIDWEGMISVSSLVGLLEKHFFPKWLQVLCSWLSNSPNYEEITKWYLGWKSMFSDQVLAHPSVKDKFNEALDIMNRAVSSNVGAYMQPGARENIAYLTHTERRKDFQYEAMQERREAENMAQRGIGVAASSVPMNFKDLIETKAEEHNIVFMPVIGKRHEGKQLYTFGRIVIYIDRGVVFVQGEKTWVPTSLQSLIDMAK
partner: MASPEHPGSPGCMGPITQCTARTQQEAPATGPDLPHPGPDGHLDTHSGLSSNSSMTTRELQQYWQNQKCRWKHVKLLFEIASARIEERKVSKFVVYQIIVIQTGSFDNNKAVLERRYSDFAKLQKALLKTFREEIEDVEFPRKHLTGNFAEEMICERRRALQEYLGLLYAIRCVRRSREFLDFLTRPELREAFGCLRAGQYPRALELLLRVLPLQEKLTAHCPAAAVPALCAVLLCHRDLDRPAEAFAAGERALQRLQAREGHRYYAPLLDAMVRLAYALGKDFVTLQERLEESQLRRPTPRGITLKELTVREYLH

Variants of: B1
Conditions: with sept7_human SEPTIN7, Q16181

Variant | effect of a mutation on the interaction
D197N | disrupting interaction strength

Variants of: B2
Conditions: with tchp_human TCHP

Variant | effect of a mutation on the interaction
P281L | disrupting interaction strength

Variants of: B3
Conditions: with eaa3_human SLC1A1, P43005

Variant | effect of a mutation on the interaction
G105S | with no effect
E108K | with no effect

Variants of: B4
Conditions: with snx20_human SNX20, Q7Z614

Variant | effect of a mutation on the interaction
R8Q | with no effect
S688L | with no effect
